Reference: patent publication EP1828247B1
Changes are numbered by the printed parent chain. Like-named read-outs stand apart in the source and are kept apart here.

Assays:
[1] = target: West Nile virus strain USA99b (strain 385-99), whole virus (West Nile virus strain 385-99 (USA99b)); assay: ELISA on irradiated WNV; IgG1 at 2.500 µg/ml
[2] = target: West Nile virus strain USA99b (strain 385-99), whole virus (West Nile virus strain 385-99 (USA99b)); assay: ELISA on irradiated WNV; IgG1 at 0.000 µg/ml (no antibody)
[3] = target: West Nile virus strain USA99b (strain 385-99), whole virus (West Nile virus strain 385-99 (USA99b)); assay: ELISA on irradiated WNV; IgG1 at 0.630 µg/ml
[4] = target: West Nile virus strain USA99b (strain 385-99), whole virus (West Nile virus strain 385-99 (USA99b)); assay: ELISA on irradiated WNV; IgG1 at 1.250 µg/ml
[5] = target: West Nile virus strain USA99b (strain 385-99), whole virus (West Nile virus strain 385-99 (USA99b))
[6] = target: West Nile virus strain USA99b (strain 385-99), whole virus (West Nile virus strain 385-99 (USA99b)); assay: ELISA on irradiated WNV; IgG1 at 0.078 µg/ml
[7] = target: West Nile virus strain USA99b (strain 385-99), whole virus (West Nile virus strain 385-99 (USA99b)); assay: ELISA on irradiated WNV; IgG1 at 5.000 µg/ml
[8] = target: West Nile virus strain USA99b (strain 385-99), whole virus (West Nile virus strain 385-99 (USA99b)); assay: ELISA on irradiated WNV; IgG1 at 0.160 µg/ml (printed 0.1.60)
[9] = target: West Nile virus strain USA99b (strain 385-99), whole virus (West Nile virus strain 385-99 (USA99b)); assay: ELISA on irradiated WNV; IgG1 at 10.000 µg/ml
[10] = target: West Nile virus strain USA99b (strain 385-99), whole virus (West Nile virus strain 385-99 (USA99b)); assay: ELISA on irradiated WNV; IgG1 at 0.039 µg/ml
[11] = target: West Nile virus strain USA99b (strain 385-99), whole virus (West Nile virus strain 385-99 (USA99b)); assay: ELISA on irradiated WNV; IgG1 at 0.310 µg/ml
[12] = target: West Nile virus strain USA99b (strain 385-99), whole virus (West Nile virus strain 385-99 (USA99b)); assay: cell-based or functional assay
[13] = target: West Nile virus CAR82 (strain ArB3573/82) (West Nile virus strain ArB3573/82); assay: cell-based or functional assay
[14] = target: West Nile virus strain USA99b (strain 385-99), whole virus (West Nile virus strain 385-99 (USA99b)); assay: cell-based or functional assay; remark: listed apart in the source
[15] = target: West Nile virus TUN97 (strain paH001) (West Nile virus strain paH001); assay: cell-based or functional assay
[16] = target: West Nile virus FRA00 (strain PaAn001) (West Nile virus strain PaAn001); assay: cell-based or functional assay
[17] = target: West Nile virus MAD78 (strain DakAnMg798) (West Nile virus strain DakAnMg798); assay: cell-based or functional assay
[18] = target: West Nile virus SEN90 (strain ArD-76104) (West Nile virus strain ArD-76104); assay: cell-based or functional assay
[19] = target: West Nile virus strain USA99b (strain 385-99), whole virus (West Nile virus strain 385-99 (USA99b)); assay: ELISA on irradiated WNV; IgG1 at 20.000 µg/ml
[20] = target: West Nile virus strain USA99b (strain 385-99), whole virus (West Nile virus strain 385-99 (USA99b)); assay: ELISA on irradiated WNV; IgG1 supernatant diluted 1:5
[21] = target: West Nile virus strain USA99b (strain 385-99), whole virus (West Nile virus strain 385-99 (USA99b)); assay: ELISA on irradiated WNV; IgG1 supernatant diluted 1:25
[22] = target: West Nile virus strain USA99b (strain 385-99), whole virus (West Nile virus strain 385-99 (USA99b)); assay: ELISA on irradiated WNV; IgG1 supernatant diluted 1:125 (printed 1.125)
[23] = target: West Nile virus strain USA99b (strain 385-99), whole virus (West Nile virus strain 385-99 (USA99b)); remark: listed apart in the source

B1: CR4353 (antibody, V domains shown)
VH: QVQLVESGGGVVQPGRSLRLSCAASGFTFSNYAMHWVRQAPGKGLEWVAVISYDGGNKYYADSVKGRFTMSRDNSKNTLYLQMNSLRAEDTAVYYCARDFWSGYSMVDSYYYYMDVWGQGTTVTVSS
VL: ETTLTQSPGTLSLSPGERATLSCRASQSVSNTFLAWYQQKPGQAPRLLIYGASSRATGIPDRFSGSGSGTDFTLTISRLEPEDFAAYYCQQYGSSLTFGPGTKVDIKR
B1 gave an OD 492nm [1] of 1.43 OD 492nm, an OD 492nm [2] of 0.003 OD 492nm and an OD 492nm [3] of 1.33 OD 492nm. It also gave an OD 492nm [4] of 1.42 OD 492nm, a Kd [5] of 6.5 nM and an OD 492nm [6] of 0.734 OD 492nm. For the same binder, the OD 492nm [7] was 1.55 OD 492nm, the OD 492nm [8] was 1.07 OD 492nm and the OD 492nm [9] was 1.57 OD 492nm. It also gave an OD 492nm [10] of 0.595 OD 492nm, an OD 492nm [11] of 1.17 OD 492nm and a PRNT50 [12] of 0.026 µg/mL. The PRNT90 [12] was 36.4 µg/mL.

B2: CR4361 (antibody, V domains shown)
VH: EVQLVQSGAEVKKPGESLKISCKASGFSFSTYWIGWVRQMPGKGLEWMGIIYPADSDTRYSPSFQGQVTISADKSISTAYLQWSSLKASDTAMYYCARLRGPYYDFWNGYRETHDAFNVWGQGTMVTVSS
VL: DVVMTQSPDSLAVSLGERATINCKSSQNILDNSDNKNFLAWYQQKPGQPPKLLIYWASARESGVPDRFSGSGSGTDFTLTISSLQAEDVALYYCQQYYNTPITFGQGTRLEIKR
For B2, the PRNT50 [12] was 2.03 µg/mL and the PRNT90 [12] was greater than 100 µg/mL.

B3: CR4374 (antibody, V domains shown)
VH: QITLKESGPTLVKPTQTLTLTCTFSGFSLSTSGVGVGWIRQPPGKALEWLAVIYWNDDKLYRPSLKSRLTITKDTSKNQVVLTMTKMDPVDTATYYCAHRHRYYDISGYYRLFSDAFDIWGQGTMVTVSS
VL: QSVLTQPPSVSGAPGQRVTISCTGSSSNIGAGYDVHWYQQLPGTAPKLLIYGNSNRPSGVPDRFSGSKSGTSASLAITGLQAEDEADYYCQSYDSSLSGSVFGGGTKLTVLG
For B3, the PRNT50 [13] was 0.14, the PRNT90 [13] was 2.9 and the PRNT50 [14] was 0.17. For the same binder, the PRNT90 [14] was 0.82, the PRNT50 [15] was 0.03 and the PRNT90 [15] was 0.22. It also gave a PRNT50 [16] of 0.11, a PRNT90 [16] of 1.36 and a PRNT50 [17] of 0.12. For the same binder, the PRNT90 [17] was 4.12, the PRNT50 [18] was 0.29 and the PRNT90 [18] was 3.92. The OD 492nm [1] was 1.58 OD 492nm, the OD 492nm [2] was 0.003 OD 492nm and the OD 492nm [3] was 1.45 OD 492nm. The OD 492nm [4] was 1.5 OD 492nm, the Kd [5] was 56 nM and the OD 492nm [6] was 0.729 OD 492nm. The OD 492nm [19] was 1.69 OD 492nm, the OD 492nm [7] was 1.65 OD 492nm and the OD 492nm [8] was 0.997 OD 492nm. For the same binder, the OD 492nm [9] was 1.72 OD 492nm, the OD 492nm [10] was 0.458 OD 492nm and the OD 492nm [20] was 2.32 OD 492nm. It also gave an OD 492nm [11] of 1.24 OD 492nm, an OD 492nm [21] of 2.27 OD 492nm and a PRNT50 [12] of 0.18 µg/mL. The PRNT90 [12] was 0.95 µg/mL and the OD 492nm [22] was 2.12 OD 492nm.

B4: CR5085 (antibody, V domains shown)
VH: B3 VH
VL: B3 VL with L4V, A86T, S98N, S100W
B4 was tested, and the Kd [23] was 3.7 nM, the PRNT50 [12] was 0.015 µg/mL and the PRNT90 [12] was 0.077 µg/mL.

B5: CR5088 (antibody, V domains shown)
VH: B3 VH
VL: B3 VL with L4V, V18I, L48F, S100W
For B5, the Kd [23] was 1.7 nM, the PRNT50 [12] was 0.017 µg/mL and the PRNT90 [12] was 0.087 µg/mL.

B6: CR5080 (antibody, V domains shown)
VH: B3 VH
VL: B3 VL with S100W, V101A
For B6, the Kd [23] was 2.7 nM, the PRNT50 [12] was 0.016 µg/mL and the PRNT90 [12] was 0.08 µg/mL.

B7: CR5074 (antibody, V domains shown)
VH: B3 VH
VL: B3 VL with A31T, G52A, N53D, S54T, L80V, S95T, S98T, S100W, L108V
Binder B7 has a Kd [23] of 3.9 nM, a PRNT50 [12] of 0.013 µg/mL and a PRNT90 [12] of 0.067 µg/mL.
